Our source for the EC50 values is patent US20200247886A1.

The assay addresses human CD47 expressed on cells (CD47 expressing CHO cells, Jurkat, HL60, DLD1, Raji) (human) (UniProt Q08722). Kind of assay: flow cytometry on human red blood cells, donor 2, MFI; EC50 (nM) table beside the legend; control whose curve stays low.

Consider IgG (antibody), for which the EC50 (as a rule, the concentration giving half of the maximal effect) was found to be 0.08 nM.
